Reference: patent publication US20230105415A1 (ARIZONA BOARD OF REGENTSON BEHALF OF ARIZONA STATE …, published 2023)

Biological target: T1, human complement C1q (human, UniProt P02745 23-245; P02746 28-253; P02747 29-245)
T1 construct: also called human C1q
Assay: C1q binding ELISA, GnGn against wt plants (FIG. 9)

T1 sequence (P02745 23-245 limits assumed, chain 1 of 3): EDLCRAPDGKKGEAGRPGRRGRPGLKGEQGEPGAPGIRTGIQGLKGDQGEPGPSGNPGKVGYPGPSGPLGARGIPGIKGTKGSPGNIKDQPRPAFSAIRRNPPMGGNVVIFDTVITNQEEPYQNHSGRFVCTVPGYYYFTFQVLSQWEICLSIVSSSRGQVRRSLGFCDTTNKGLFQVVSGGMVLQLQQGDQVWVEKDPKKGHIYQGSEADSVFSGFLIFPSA
T1 sequence (P02746 28-253 limits assumed, chain 2 of 3): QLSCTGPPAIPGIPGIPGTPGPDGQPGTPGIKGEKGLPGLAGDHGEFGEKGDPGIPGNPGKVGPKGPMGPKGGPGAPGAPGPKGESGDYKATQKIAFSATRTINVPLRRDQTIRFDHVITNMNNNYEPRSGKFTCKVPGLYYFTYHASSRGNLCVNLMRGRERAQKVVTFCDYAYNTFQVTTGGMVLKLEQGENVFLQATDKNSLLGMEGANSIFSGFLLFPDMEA
T1 sequence (P02747 29-245 limits assumed, chain 3 of 3): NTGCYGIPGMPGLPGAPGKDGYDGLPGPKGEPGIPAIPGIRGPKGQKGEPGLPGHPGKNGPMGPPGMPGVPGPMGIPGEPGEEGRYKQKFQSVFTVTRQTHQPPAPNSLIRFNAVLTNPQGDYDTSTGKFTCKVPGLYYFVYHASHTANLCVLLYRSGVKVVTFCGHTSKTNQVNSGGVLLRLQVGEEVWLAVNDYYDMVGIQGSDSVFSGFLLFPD

B1: 6D8 antibody (full 6D8 mAb without ZE3 fusion, construct HL) (antibody)
heavy: not shown
light: DVLMTQSPLSLPVTLGQPASISCRSSQSIVHSNGNTYLEWYLQKPGQSPKLLIYKASNRFSGVPDRFSGSGSGTDFTLKISRVEAEDAGVYYCLQGSHVPSTFGGGTKVEIKTVAAPSVFIFPPSDEQLKSGTASVVCLLNNFYPREAKVQWKVDNALQSGNSQESVTEQDSKDSTYSLSSTLTLSKADYEKHKVYACEVTHQGLSSPVTKSFNRGEC
Does B1 bind?
Result: binds
